From US20120208770A1 come the findings set out here.

For this assay, the target named is vimentin of SCCVII cells (cell-surface protein of murine squamous cell carcinoma cells and SCCVII tumors in C3H mice) (mouse (murine SCCVII cells)) (UniProt P20152). As to the kind of experiment: cell-based or functional assay.
UniProt P20152, sequence (P20152 2-466): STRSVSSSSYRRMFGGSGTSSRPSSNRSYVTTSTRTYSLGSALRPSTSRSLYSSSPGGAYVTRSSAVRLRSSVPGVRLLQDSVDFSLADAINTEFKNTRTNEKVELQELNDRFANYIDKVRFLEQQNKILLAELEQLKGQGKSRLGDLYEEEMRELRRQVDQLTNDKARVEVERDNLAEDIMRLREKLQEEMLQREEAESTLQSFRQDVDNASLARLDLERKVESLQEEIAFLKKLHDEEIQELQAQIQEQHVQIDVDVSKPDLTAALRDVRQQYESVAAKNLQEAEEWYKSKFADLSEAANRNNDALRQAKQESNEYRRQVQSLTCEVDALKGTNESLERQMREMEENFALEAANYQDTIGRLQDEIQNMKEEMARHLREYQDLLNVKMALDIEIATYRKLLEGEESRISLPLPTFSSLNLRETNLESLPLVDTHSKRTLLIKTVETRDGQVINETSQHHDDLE

B1: CHP-biotin (NH2-…-biotin) (peptide)
peptide: H-VNTANSTGG-biotin
For the molecule B1, the accumulation of peptide-biotin in SCCVII tumor (positive per field, DAB staining), co-administered with anti-vimentin (positive per field) is 1.2 and the accumulation of peptide-biotin in SCCVII tumor (positive per field, DAB staining), without anti-vimentin (positive per field) came to 19.6.
